Laboratory results: patent US20040038855A1 (priority 1999, published 2004)
pKi: −log10 of the molar value. Values belong to the substance of their own block, whether it stands above or below them. Ends that are not written are not given here.

Legend:
[1] = molecular target: human MCH1 receptor (Homo sapiens, UniProt Q99705); assay: Binding of [125I]Phe13,Tyr19-MCH on MCH1-transfected Cos-7 cell membranes; set-up: expressed in transfected cells; host or cells: COS-7; conditions: 0.1 nM radioligand
Protocol: For binding assays, pellets of transfected cells are suspended in ice-cold buffer (20 mM Tris.HCl, 5 mM EDTA, pH 7.4) and homogenized by sonication for 7 sec. The cell lysates are centrifuged at 200×g for 5 min at 4° C. The supernatants are then centrifuged at 40,000×g for 20 min at 4° C. The resulting pellets are washed once in the homogenization buffer and suspended in binding buffer (see methods for radioligand binding). Protein concentrations are determined by the method of Bradford (1976) using bovine serum albumin as the standard. Binding assays are usually performed immediately, however it is possible to prepare membranes in batch and store frozen in liquid nitrogen for future use.
MCH1 binding experiments with membranes (20-40 μg membrane protein) from transfected cells are performed with 0.1 nM [^125I]Phe^13-Tyr^19-MCH (Custom labeled by NEN) using incubation buffer consisting of 50 mM Tris pH 7.4, 10MM MgCl2, 2 μg/ml aprotonin, 0.5 mM PMSF and 50 μg/ml bacitracin. Binding is performed at 25° C. for 1 hr. Incubations are terminated by rapid vacuum filtration over GF/C glass fiber filters, presoaked in 5% PEI using 50 mM Tris pH 7.4 containing 0.01% triton X-100 as wash buffer.
Specific [^125I]Phe^13-Tyr^19-MCH binding was about 70% of total binding at a radioligand concentration of 0.1 nM (FIG. 10).

[2] = tested on: MCH binding sites of G4F-7 cells; conditions: cited from earlier work

Chain of human MCH1 receptor (Q99705 whole entry): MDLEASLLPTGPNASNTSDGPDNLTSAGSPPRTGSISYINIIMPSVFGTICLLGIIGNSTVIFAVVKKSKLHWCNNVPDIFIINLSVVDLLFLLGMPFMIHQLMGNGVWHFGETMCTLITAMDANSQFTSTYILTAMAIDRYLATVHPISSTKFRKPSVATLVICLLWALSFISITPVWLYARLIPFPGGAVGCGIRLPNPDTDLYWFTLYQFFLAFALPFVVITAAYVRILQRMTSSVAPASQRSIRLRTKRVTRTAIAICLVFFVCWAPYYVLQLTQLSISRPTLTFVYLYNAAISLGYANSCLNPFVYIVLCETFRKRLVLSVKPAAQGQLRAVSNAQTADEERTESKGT

specific binding as share of total binding [1]: about 70 % of total binding
specific binding ([1]; MCH1-transfected cells): about 80 fmol/mg membrane protein
Substance: [^125I]Phe^13-Tyr^19-MCH: radioiodinated MCH analogue, custom labeled by NEN, radioligand of the MCH1 binding experiments

Substance: rat ANF: rat ANF, weakly inhibited binding of the radioiodinated MCH analogue (SLRRSSCFGGRIDRIGAQSGLGCNSFRY; ends and bridges not checked; cysteine pairing not given here; UniProt P01161 123-150, looked up)
pKi ([2]; inhibition of binding of the radioiodinated ligand): 6.94

Substance: α-MSH
inhibition of binding of the radioiodinated ligand [2]: not inhibited
